Reference: IntAct's records for PubMed 17643121

B1: BRCA1-A complex subunit Abraxas 1 (Homo sapiens), Q6UWZ7 (parent)
chain: MEGESTSAVLSGFVLGALAFQHLNTDSDTEGFLLGEVKGEAKNSITDSQMDDVEVVYTIDIQKYIPCYQLFSFYNSSGEVNEQALKKILSNVKKNVVGWYKFRRHSDQIMTFRERLLHKNLQEHFSNQDLVFLLLTPSIITESCSTHRLEHSLYKPQKGLFHRVPLVVANLGMSEQLGYKTVSGSCMSTGFSRAVQTHSSKFFEEDGSLKEVHKINEMYASLQEELKSICKKVEDSEQAVDKLVKDVNRLKREIEKRRGAQIQAAREKNIQKDPQENIFLCQALRTFFPNSEFLHSCVMSLKNRHVSKSSCNYNHHLDVVDNLTLMVEHTDIPEASPASTPQIIKHKALDLDDRWQFKRSRLLDTQDKRSKADTGSSNQDKASKMSSPETDEEIEKMKGFGEYSRSPTF

Variants of: B1
Details: with brca1_human BRCA1, P38398
Sequence of brca1_human BRCA1, P38398 (P38398 whole entry, looked up): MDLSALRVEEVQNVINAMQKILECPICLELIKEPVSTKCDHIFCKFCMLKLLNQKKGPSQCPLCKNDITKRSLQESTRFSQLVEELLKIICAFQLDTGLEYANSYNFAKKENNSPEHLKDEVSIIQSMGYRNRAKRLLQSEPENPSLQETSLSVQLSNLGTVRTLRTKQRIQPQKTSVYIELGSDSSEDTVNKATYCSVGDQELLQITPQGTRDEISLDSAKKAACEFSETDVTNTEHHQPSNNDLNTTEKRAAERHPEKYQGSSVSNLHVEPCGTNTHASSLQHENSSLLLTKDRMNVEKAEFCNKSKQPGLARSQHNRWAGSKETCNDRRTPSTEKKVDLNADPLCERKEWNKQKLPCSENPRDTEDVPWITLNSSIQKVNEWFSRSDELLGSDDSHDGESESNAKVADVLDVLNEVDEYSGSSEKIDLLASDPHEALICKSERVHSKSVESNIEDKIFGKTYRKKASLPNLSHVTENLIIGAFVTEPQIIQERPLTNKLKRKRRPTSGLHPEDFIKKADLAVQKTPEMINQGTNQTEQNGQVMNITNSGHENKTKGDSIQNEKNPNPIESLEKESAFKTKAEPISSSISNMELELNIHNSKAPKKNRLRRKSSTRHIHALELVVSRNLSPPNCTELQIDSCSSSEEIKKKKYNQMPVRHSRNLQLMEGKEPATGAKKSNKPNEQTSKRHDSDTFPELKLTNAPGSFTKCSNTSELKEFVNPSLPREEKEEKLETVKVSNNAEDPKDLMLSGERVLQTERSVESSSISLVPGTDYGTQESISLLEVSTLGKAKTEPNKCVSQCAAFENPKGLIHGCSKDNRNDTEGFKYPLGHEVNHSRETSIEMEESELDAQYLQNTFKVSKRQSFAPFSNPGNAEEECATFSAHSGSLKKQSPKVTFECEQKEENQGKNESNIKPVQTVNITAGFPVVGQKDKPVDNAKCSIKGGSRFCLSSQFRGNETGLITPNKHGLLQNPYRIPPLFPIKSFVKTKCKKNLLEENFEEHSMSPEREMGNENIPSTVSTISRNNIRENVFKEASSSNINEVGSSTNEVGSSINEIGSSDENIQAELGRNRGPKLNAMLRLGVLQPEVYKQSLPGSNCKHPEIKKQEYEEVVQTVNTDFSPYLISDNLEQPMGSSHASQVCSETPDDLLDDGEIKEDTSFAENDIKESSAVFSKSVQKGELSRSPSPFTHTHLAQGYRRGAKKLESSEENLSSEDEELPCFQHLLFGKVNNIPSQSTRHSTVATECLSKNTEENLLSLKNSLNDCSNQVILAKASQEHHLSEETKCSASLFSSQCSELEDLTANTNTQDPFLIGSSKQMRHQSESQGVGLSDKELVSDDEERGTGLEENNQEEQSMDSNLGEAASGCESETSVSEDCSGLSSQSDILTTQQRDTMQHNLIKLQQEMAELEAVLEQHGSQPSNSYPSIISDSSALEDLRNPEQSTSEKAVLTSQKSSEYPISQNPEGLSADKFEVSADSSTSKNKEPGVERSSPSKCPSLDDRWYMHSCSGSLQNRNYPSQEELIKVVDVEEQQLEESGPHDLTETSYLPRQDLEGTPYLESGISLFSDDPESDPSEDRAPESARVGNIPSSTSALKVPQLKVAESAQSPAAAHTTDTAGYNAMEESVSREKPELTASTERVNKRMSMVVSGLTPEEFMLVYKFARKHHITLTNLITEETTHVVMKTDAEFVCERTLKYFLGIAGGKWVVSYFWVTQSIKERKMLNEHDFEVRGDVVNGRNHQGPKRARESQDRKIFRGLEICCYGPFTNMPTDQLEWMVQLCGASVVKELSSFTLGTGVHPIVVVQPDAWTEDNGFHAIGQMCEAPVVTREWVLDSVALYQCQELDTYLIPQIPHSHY

Row | Variant | effect of a mutation on the interaction
1 | S406A | decreasing interaction
